Data from patent publication US10429300B2, “Surface plasmon resonance approach to monitor protein-ligand interactions” (The Johns Hopkins University, priority 2015, dated 2019).

Key:
[1] = target: rNav1.2a/Kv2.1 VSD IV chimera R1629A; details: R1629A substitution; read-out: apparent KD; cited from earlier work
[2] = target: rNav1.2a/Kv2.1 VSD IV paddle chimera; details: WT chimera; read-out: apparent KD, WT chimera (previously shown); cited from earlier work
[3] = target: rNav1.2a/Kv2.1 VSD IV chimera L1630A; details: L1630A substitution; read-out: apparent KD; cited from earlier work
Chain of rNav1.2a/Kv2.1 VSD IV chimera L1630A (P04775 1605-1636 L1630A limits assumed): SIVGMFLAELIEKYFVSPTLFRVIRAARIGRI

rNav1.2a = experiment: Two-electrode voltage-clamp, rNav1.2a expressed in Xenopus oocytes; type: cell-based, rat; details: 100 nM toxin
Source text: The DNA sequence of rat (r)Nav1.2a (provided by A. Goldin, University of California, Irvine, Irvine, Calif.), rKv2.1 (provided by K. J. Swartz, National Institutes of Health), and the rNav1.2a/Kv2.1 VSD II or IV chimera was confirmed by automated DNA sequencing, and cRNA was synthesized using T7 polymerase (mMessage mMachine™ kit; Life Technologies) after linearizing the DNA with appropriate restriction enzymes. Channels were expressed in Xenopus oocytes (obtained from Xenopus 1) and studied after a 1-d incubation after cRNA injection (incubated at 17° C. in 96 mM NaCl, 2 mM KCl, 5 mM HEPES, 1 mM MgCl2, 1.8 mM CaCl2, and 50 μg/ml gentamycin, pH 7.6 with NaOH) using two-electrode voltage-clamp recording techniques (OC-725C; Warner Instruments) with a 150-μl recording chamber. Data were filtered at 4 kHz and digitized at 20 kHz using pClamp™ 10 software (Molecular Devices). Microelectrode resistances were 0.5-1.5 MΩ when filled with 3 M KCl. For Kv chimera channel experiments, the external recording solution contained (mM): 50 KCl, 50 NaCl, 5 HEPES, 1 MgCl2, and 0.3 CaCl2, pH 7.6 with NaOH. For rNav1.2a experiments, the external recording solution contained (mM): 100 NaCl, 5 HEPES, 1 MgCl2, and 1.8 CaCl2, pH 7.6 with NaOH. All experiments were performed at ˜22° C. Leak and background conductances, identified by blocking the channel with agitoxin-2 (provided by K. J. Swartz), have been subtracted for all of the Kv channel currents shown. […] Voltage-activation relationships were obtained by measuring tail currents for Kv channels or steady-state currents and calculating conductance for Nav channels, and a single Boltzmann function was fitted to the data according to I/Imax=[1c+cexp(−zF(Vc−cV1/2)/RT)]^−1, where I/Imax is the normalized tail-current amplitude, z is the equivalent charge, V1/2 is the half-activation voltage, F is Faraday's constant, R is the gas constant, and T is temperature in kelvin. For all channels, voltage-activation relationships were recorded in the absence and presence of toxin. The ratio of currents (I/I0) recorded in the presence (I) and absence (I0) of toxin was calculated for voltages typically ranging from −140 to 10 cmV, depending on the construct. […] The apparent equilibrium dissociation constant (apparent KD) for Kv channels was calculated according to KD=((1/(1c−cFu^1/4))c−c1)[toxin], assuming four independent toxin-binding sites per channel. Results are given as mean±SEM unless noted otherwise. Offline data analysis was performed using Clampfit 10™ (Molecular Devices), Origin 8.0™ (OriginLab), and Excel™ (Microsoft). All chemicals were obtained from Sigma-Aldrich.
Representative sodium currents were elicited by a 50-ms depolarization to a suitable membrane voltage (−20 to −15 mV) before (black) and after toxin addition (green) from a holding voltage of −90 mV. […] For each toxin, K^+ currents were elicited by a 300-ms depolarization to 0 mV from a holding voltage of −90 mV (tail voltage was −60 mV). […] For each toxin, K^+ currents (top) were elicited by a 300-ms depolarization near the foot of the voltage-activation curve (bottom) from a holding voltage of −90 mV.

[4] = system: rNav1.2a/Kv2.1 VSD IV chimera containing the R1629A/L1630A substitutions; type: cell-based, rat
Chain of rNav1.2a/Kv2.1 VSD IV chimera containing the R1629A/L1630A substitutions (P04775 1605-1636 R1629A/L1630A limits assumed): as the sequence (P04775 1605-1636 L1630A limits assumed) above, with R25A counted along it
Source text: The DNA sequence of rat (r)Nav1.2a (provided by A. Goldin, University of California, Irvine, Irvine, Calif.), rKv2.1 (provided by K. J. Swartz, National Institutes of Health), and the rNav1.2a/Kv2.1 VSD II or IV chimera was confirmed by automated DNA sequencing, and cRNA was synthesized using T7 polymerase (mMessage mMachine™ kit; Life Technologies) after linearizing the DNA with appropriate restriction enzymes. Channels were expressed in Xenopus oocytes (obtained from Xenopus 1) and studied after a 1-d incubation after cRNA injection (incubated at 17° C. in 96 mM NaCl, 2 mM KCl, 5 mM HEPES, 1 mM MgCl2, 1.8 mM CaCl2, and 50 μg/ml gentamycin, pH 7.6 with NaOH) using two-electrode voltage-clamp recording techniques (OC-725C; Warner Instruments) with a 150-μl recording chamber. Data were filtered at 4 kHz and digitized at 20 kHz using pClamp™ 10 software (Molecular Devices). […] For all channels, voltage-activation relationships were recorded in the absence and presence of toxin. The ratio of currents (I/I0) recorded in the presence (I) and absence (I0) of toxin was calculated for voltages typically ranging from −140 to 10 cmV, depending on the construct. […] The apparent equilibrium dissociation constant (apparent KD) for Kv channels was calculated according to KD=((1/(1c−cFu^1/4))c−c1)[toxin], assuming four independent toxin-binding sites per channel. […]

Chain of rNav1.2a/Kv2.1 VSD IV paddle chimera (P04775 1605-1636 limits assumed, stated change not applied): as the sequence (P04775 1605-1636 L1630A limits assumed) above, with A26L counted along it
Chain of rNav1.2a/Kv2.1 VSD IV chimera R1629A (P04775 1605-1636 R1629A limits assumed): as the sequence (P04775 1605-1636 L1630A limits assumed) above, with R25A, A26L counted along it

B1: AaHII: Nav channel-selective α-scorpion toxin from Androctonus australis hector; model toxin (protein)
chain: VKDGYIVDDVNCTYFCGRNAYCNEECTKLKGESGYCQWASPYGNACYCYKLPDHVRTKGPGRCH
Kd [1]: 235 ± 24 nM
Kd [2]: 1900 nM
Kd [3]: 205 ± 23 nM
effect on rNav1.2a fast inactivation (rNav1.2a; 50-ms test pulse): inhibits rNav1.2a fast inactivation
fast inactivation time constant (τ) after toxin application (rNav1.2a; single-exponential fit of current decay, n=3, mean±SEM): 4.9±0.1
inhibition of the double mutant channel ([4]; 100 nM toxin): strongly inhibits
Kd ([4]; read-out: apparent KD): 193 ± 42 nM
